# Laboratory results from publication PMC8281802, “Bacterial Vipp1 and PspA are members of the ancient ESCRT-III membrane-remodeling superfamily” (Cell, 2021).
# Positions count from the first letter of the chain named. In names and notes the source's numbering stands. Several values for one entry are separate records, joined by “and”; a condition that tells them apart may be missing. Equal values may be shown once.
# B1: Vipp1Δα6_(1–219) (domain or fragment, Nostoc punctiforme, UniProt B2J6D9 1-219, looked up)
# chain: MGLFDRIKRVVSSNLNDLVNKAEDPEKMLEQAILEMQEDLVQLRQGVAQAIAAQKRSEKQYNDAQNEINKWQRNAQLALQKGDENLARQALERKKTYTDTSAALKASLDTQSTQVETLKRNLIQLESKISEAKTKKEMLKARITTAKAQEQLQGMVRGMNTSSAMSAFERMEEKVLMQESRAQALGELAGADLETQFAQLEGGSDVDDELAALKAQMLP
# notes: Vipp1/IM30, Nostoc punctiforme, UniProt B2J6D9, residues 1-219; lacks the C-terminal extension with helix α6 (aa 220-258); Plasmid pOPTM/Vipp1Δα6_(1-219); not shown: MBP, N-terminal, cleaved; His6, N-terminal, cleaved
# B2: Vipp1/IM30 from Nostoc punctiforme, full-length (amino acids 1–258) (natural protein, UniProt B2J6D9 1-258, looked up)
# chain: MGLFDRIKRVVSSNLNDLVNKAEDPEKMLEQAILEMQEDLVQLRQGVAQAIAAQKRSEKQYNDAQNEINKWQRNAQLALQKGDENLARQALERKKTYTDTSAALKASLDTQSTQVETLKRNLIQLESKISEAKTKKEMLKARITTAKAQEQLQGMVRGMNTSSAMSAFERMEEKVLMQESRAQALGELAGADLETQFAQLEGGSDVDDELAALKAQMLPPATPVTQAQLPPQQETTPAKSNEVVDAELDSLRKQLDQL
# notes: Vipp1/IM30, Nostoc punctiforme, UniProt B2J6D9, amino acids 1-258, 28.7 kDa; His6 sits on the MBP moiety and leaves with it on TEV cleavage; also called native Vipp1; WT; not shown: MBP, N-terminal, cleaved; His6, N-terminal, cleaved
# B3: Vipp1_(L86C/L193C) (natural protein, Nostoc punctiforme, UniProt B2J6D9 1-258, looked up)
# chain: B2 chain with L86C, L193C
# notes: Vipp1/IM30, Nostoc punctiforme, UniProt B2J6D9, with the cysteine pair L86C and L193C; Plasmid pOPTM/Vipp1_(L86C/L193C); The legend notes some uncleaved MBP-Vipp1 in the gel; also called L193C and L86C mutants; not shown: MBP, N-terminal, cleaved; His6, N-terminal, cleaved
# Key:
# [1] = biological target: the molecule itself; test: SEC + other: negative stain EM; filament assembly assay: Sephacryl 16/60 S500 gel filtration in 25 mM Tris-HCl pH 8.4, 50 mM NaCl; void volume, peak 1 and peak 2 analysed by SDS-PAGE and negative stain EM
# [2] = biological target: the molecule itself; test: cryo-EM structure; 35 μM Vipp1 mixed with pre-formed rat Dynamin 1 filaments (to keep the ice thick) and vitrified; rings of C11 to C17 symmetry reconstructed
# [3] = biological target: the molecule itself; test: cross-linking; cysteine cross-linking: 5 μM protein in 25 mM Tris-HCl pH 8.4, 50 mM NaCl with CuP or 5 μM MTS-4, 1 h at room temperature; rescue with 10 mM DTT; SDS-PAGE
protein,measurement,setting,value
B1,binding result,[1],binds
B2,stoichiometry N,[2],84 subunits and 55 subunits to 119 subunits (2×)
B3,binding result,[3],binds
